# Measurements: article PMC9710872
# pKd: −log10 of the molar value.
# Target: SARS-CoV-2 spike (S) protein, unlabelled (ACROBiosystems) (SARS-CoV-2) (UniProt P0DTC2)
# Assay: SPR
substance,measurement,value
"recombinant NRP1 (ACROBiosystems), SPR analyte (from UniProt O14786) (natural protein)",pKd,7.05
